From the DeepSol protein solubility set

Test: soluble on expression in E. coli; label from the status in PepcDB or PDB records

Sequence | soluble on expression in E. coli
MSLKLLIFEYATASGIDDPEIFLEGRSMLEALLTDFRDFDVEFLLSERFADMDIGAGFRPSIIGDLDEWLQENLEGFDACIFIAAEEGMELYRLTRIVEESGVLLLGSSGDAVRTCSDKRLTYRALDGRVPLIGTYEPEEIVDVPSRLIVKPADGVACQGIRILEPGDEPDLSGDMIIQDFIEGESVSVSLLSNGEKALPLSLNRQDIIMAGSELEYNGGSAPVDHEMREDAFTVARRAVESITGLRGYVGVDLILADEPYVVEINSRITTPYIGLRRVTEANLGHLILESVLGRLPSGVKFNGTASFRKGIDGMVVEVTEGFRGYEGHHHHHH | soluble
MSLKLSDPGPIFYGHRRVGHNGRYFHCLKFRTMAMNGDEMLRQYLAANPEAAEEWRATRKLKNDPRVTAVGAVLRKLSLDELPQLLNIIRGEMSVVGPRPVVDEELSYYENAAAYYLSTRPGLTGLWQISGRNDVSYKTRVAFDTQYVQNWSMRQDVFIIVKTIPAVCMSRGSYEGHHHHHH | soluble
MSLKLTIGVSYPTANSPFWNAYTRFIDEGSHQLGVYINAVSAEEDEQKQLSDVETLINQGIDGLIVTPQSTSIAPTLLRIATQANIPVVVVDRYPGYAPGQNKNADYVAFLGPNNEKAGSGIAEALMAGGGSKFLALGGMPGNSVAQGRKAGLESALTAVGHRLVQFQYAGDSEDKGLAAAENMLQAHPAGDANAIWCFNDKLCQGAIKAVYNANREKEFIFGGMDLTPQAIAAIENGLYTVSLGAHWLEGGFGLAILYRKIHGQDPAERMVKLDLLKVDKSNVAKFKARYEGHHHHHH | not soluble
MSLKNPLKLCGIEFTEYATPDSDFMEKAFYGFGFSKTKKMKGRDVEYFNQNDIHFLLNKEKAGFSKEFAKSHGPAICSMGWRVEDANFAFNEAVKRGAKSAENEANKLPYPAIFGIGDSLIYFIENFAKTGTNKGLIYDTDFEDIAEPVIVEDKGFLAVDHLTNNVYQGTMHKWADFYKDVFGFTEVRYFDIKGVKTALISYALASPCGKFCIPINEGKGSKDNQIDEYLNEYNGPGVQHLAFITDDLVGSLDKLDRSIVDTLNIVPEYYDEIFDRVPWVKEDKARIKEHQILVDSQSEDSYLLQIFTKNLFGPIFIEMIQRVDDQGFGEGNFSTLFKSIELNQMERGEGHHHHHH | soluble
MSLKPKRILLVNEQRSFQVMMKAMLINIGISRITYANSAEEARRRCQKETFDIYLLDYELGVGENGRQLLESLRDQKLIPPQSVVIMVSGDSSRAMVLSALEAEPDEYLMKPFSQEQFSFRLKRALARRQALESVFSALAKEDLPTLLAACAERADAVPRFANFCRCLQADTQLKLGQAKEARSLMRQLLAGQENSWARLTLGKACHTLGLNEEAVSHLQATLKNTPLMVEAHLWLAESQLALGNDEQAQQELKRAVDISPQSVQLSRRLAEVCLLRHDYAQAKDVLLSLIDLSRNSIHRTPHYLGAYIQSLTLYALNSNEGHHHHHH | not soluble
MSLKPSDFVKYLQRMIALTDTGLTFTKDPFDRERYEDLRSLLSEMLNQVSDLDAEEVAEVLKPTSAYATPLMDVRAWIVEDEKICLVRRQGEDSWALPGGFGEVGYSPTENILKEIEEETGFKAKVERLLAVFDTNRFQLQSKQYAKFVFECKLLDGQFQENQEIAALQFFTIDQLPNLSEKRITKEQIEILWQVYQGQREQYLDEGGSHHHHHH | soluble
MSLKQAAENTLNLNPVIGIRGKDLLTSARMVLLQAVRQPLHSARHVAHFSLELKNVLLGQSELRPGDDDRRFSDPAWSQNPLYKRYMQTYLAWRKELHSWISHSDLSPQDISRGQFVINLLTEAMSPTNSLSNPAAVKRFFETGGKSLLDGLGHLAKDLVNNGGMPSQVDMDAFEVGKNLATTEGAVVFRNDVLELIQYRPITESVHERPLLVVPPQINKFYVFDLSPDKSLARFCLRNGVQTFIVSWRNPTKSQREWGLTTYIEALKEAIEVVLSITGSKDLNLLGACSGGITTATLVGHYVASGEKKVNAFTQLVSVLDFELNTQVALFADEKTLEAAKRRSYQSGVLEGKDMAKVFAWMRPNDLIWNYWVNNYLLGNQPPAFDILYWNNDTTRLPAALHGEFVELFKSNPLNRPGALEVSGTPIDLKQVTCDFYCVAGLNDHITPWESCYKSARLLGGKCEFILSNSGHIQSILNPPGNPKARFMTNPELPAEPKAWLEQAGKHADSWWLHWQQWLAERSGKTRKAPASLGNKTYPAGEAAPGTYVHEREGHHHHHH | not soluble
MSLKQQLIKNGLVLDMKGNHKPQAKDILIEGKWIRDIRPNIEPEVDTEIIDAEGKIVMPGFVDTHRHVWESLLRHIGTDWTLLTYLDNLYYGNLGSMLTPEDSYIANLWGALEAIDAGVTTVLDWSMLETPEHADASIKGLQAAGIRAVFAHGTPGYETYWSRDSEVRHPKDAKRVKKEYFQSDDQLLTMALAIRGPEFSSWEVTLDDIQLARELDAIASMHIGFGTWGPHDRSITRMREAGLLDSDLNLVHVNRIQPHEYEYIAESGASLSVTPEVEMMMGHGYPATGYLHKHRGLVTLGVDVVVATAGDMFAQMKFALQAERAWQNEQRLDRGEMPEQLKMTTNDVLTFATLNGAKALKLDDKIGTLDVGKEADLLLINPSSFNLFPLNHEPVGAVVQSARPENVDSVFIAGRPVKRHGKLLFDDLDGLRNKVLAASEAVFHRQAAKNEGHHHHHH | soluble
MSLKRQRIVIKIGSSSLTTKQGALDLEKLEGYVRAIVNLRKAGHEVILISSGAVAAGFSRLGYPVRPTTMAGKQAAAAVGQALLMQHYMERFHQHGIIAAQLLLTRKDFQNQTQYTNAYSALMELLKRGALPIINENDSTSIAELTFGDNDMLSALVSGLIHAHTLCILTDVNGLYDANPKTHPNAKRYQYLPTIPDEMLQMGGEAGSNVGTGGMKSKVAAAQTALSLGVDVFIGKASGEHALLDILSGKGDGTYVGNTGDLMEGKTKQWIRLHSPVSGVVRIDQGAERAIMNEGKSLLPAGVTSVHGTFQAGDVVHIWNEQNKVIAKGQVTLSSEQLRKVQGRKSDEAKQLIPLVRDEVVHRDQLVIQEKELNESEGHHHHHH | not soluble
MSLKSYILLIKCKTDTTIRTKSKKFLIRKGVYAYVGSCGRSCGRRVSRHFNKEKSNYHWHIDYLTKACEPIGVFVMNHVGEKELALLFSKNNAFIEEFGSSDDKDAKSHLFIVNDLQELCSTVCDKSREREGHHHHHH | soluble
MSLKTVVVSGASVAGTAAAYWLGRHGYSVTMVERHPGLRPGGQAIDVRGPALDVLERMGLLAAAQEHKTRIRGASFVDRDGNELFRDTESTPTGGPVNSPDIELLRDDLVELLYGATQPSVEYLFDDSISTLQDDGDSVRVTFERAAAREFDLVIGADGLHSNVRRLVFGPEEQFVKRLGTHAAIFTVPNFLELDYWQTWHYGDSTMAGVYSARNNTEARAALAFMDTELRIDYRDTEAQFAELQRRMAEDGWVRAQLLHYMRSAPDFYFDEMSQILMDRWSRGRVALVGDAGYCCSPLSGQGTSVALLGAYILAGELKAAGDDYQLGFANYHAEFHGFVERNQWLVSDNIPGGAPIPQEEFERIVHSITIKDYEGHHHHHH | not soluble
MSLKTYDAFPEPIGGYTVGRTQMDFEYTASDHSKRELTAFVYYPSDSSEGKTTSTYMFPEVYEMFNEQPLVTALKDVFSIDIKTQCYDDLALSGKEKRYPVLFYVCGGGGSPEWGTVICTDLASMGYVVVSIGHQNSTMYKRKDGRLFNVSKDFSDVIMAFSEDPEMLALAGKMEMRPDDETAIEMCHNVLTLPILAKLTEYSELQAEDVRYVADYLYKLDSGELNSIFKGRLLLDIGMGIVGHSYGGPTTAIVCRDDDRFACGIGLDSGAFGLLDSDLKKPFLLLFCEPNYNMNAIIGANNSMETYYFSVDRVAHLDYCDIVFTSVNEELRGERDAMEMRNLVTDYTKNFFDHYILLKAASVESLAYDGVDLIKKTSNKEGHHHHHH | soluble
MSLKVLAFDTSSKALSLAILEDKQVLAETTINIKKNHSITLMPAIDFLMASLDWTPKDLDRIVVAEGPGSYTGLRIAVATAKTLAHTLNIELVGMSSLLALVPYQQEGLFIPLMDARRNNVYAGFYENAKPVMAEAHLPFERVIELIKGASQVTFVGEVGPFVEQIQKHLPRTDYKETLPNAANLALLAWDKEADSLHDFVPNYLKRVEAEENWLKNHTESGESYIKRLEGHHHHHH | soluble
MSLKYGRDTIVEVDLNAVKHNVKEFKKRVNDENIAMMAAVKANGYGHGAVEVAKAAIEAGINQLAIAFVDEAIELREAGINVPILILGYTSVAAAEEAIQYDVMMTVYRSEDLQGINEIANRLQKKAQIQVKIDTGMSRIGLQEEEVKPFLEELKRMEYVEVVGMFTHYSTADEIDKSYTNMQTSLFEKAVNTAKELGIHIPYIHSSNSAGSMEPSNTFQNMVRVGIGIYGMYPSKEVNHSVVSLQPALSLKSKVAHIKHAKKNRGVSYGNTYVTTGEEWIATVPIGYADGYNRQLSNKGHALINGVRVPVIGRVCMDQLMLDVSKAMPVQVGDEVVFYGKQGEENIAVEEIADMLGTINYEVTCMLDRRIPRVYKENNETTAVVNILRKN | not soluble
MSLKYKNLFFDLDDTIWAFSRNARDTFEEVYQKYSFDRYFDSFDHYYTLYQRRNTELWLEYGEGKVTKEELNRQRFFYPLQAVGVEDEALAERFSEDFFAIIPTKSGLMPHAKEVLEYLAPQYNLYILSNGFRELQSRKMRSAGVDRYFKKIILSEDLGVLKPRPEIFHFALSATQSELRESLMIGDSWEADITGAHGVGMHQAFYNVTERTVFPFQPTYHIHSLKELMNLLEGHHHHPPLIRIRAPSTSLRPHSSTTTTTTEIRLLTKPERKLSWLLPPLSNN | soluble
MSLLANLPPLVTVFGGSGFVGRHVVRMLAKRGYRIRVAVRRPDLAGFLQPLGNVGQISFAQANLRYRDSIIKAVEDADHVVNCVGILAESGRNTFDAVQEFGAKAIAEAARDTGATLTHISAIGADANSQTGYGRTKGRAEAAIHSVLPGAVILRPSIIFGPEDDFFNKFAKMARNLPFLPLIGGGKTKFQPVYVEDVAEAVARSVDGKLKPGAIYELGGPDVMTFRDCLEAVLAATYRERSFVNLPFGVASMIGKLASLVPLITPPLTPDQVTMLKKDNVVSAEAEKKGLTLEGIGITPVRVASVLPSYMVQYRQHGQFSNAGKAAEGHHHHHH | soluble
MSLLLFQSLLRRGLLVAINFSPKVGEILECNFGNYPVSQNGPFSTTYYDGRIPPEMIKNRLVVVLNGKINGNAFIVVPLSTTRDHDKLKRGMHVEIASNVINDLQFFDQQIRWAKTDLVQQVSRNRLNRARTYRGYLNQCLPHELVADIQRAVIKSINAISLINEGHHHHHH | not soluble
MSLLLTNHIGYERLGPKKAIIQTEQPHLSSYTAQLICATSEQTVATFAVEEQGKVANWHQGYFYLIDFSSFTDSGDYFLQVEDSRSSTFTVGEHILLNQTLSDVIHYFKSQRCGGVFDQQDRQVPVLNANQTADVHGGWYDASGDVSKYLSHLSYANYLNPQQTPMVVWNILKGLSLLEGSEDIAAFTRTRLIEEALFGADFLVRMQNEKGFFYMTVFDKWSKDTAQREICAYETQLGHKFDDYQAGFRQGGGVAIAALAAASRLGVHGEYDQQKYRNAAENGYWHLKEHNTQYLNDGEENIIDEYCALLASVELFKATKETRYLEESRLWAQRLVARQMSDEQIQHFWSANQDGSRPYFHAAEAGLPTIALCEYLAIEDDSVQTESVKCIVNRACEFEIKISNKVTNPFGYPRQYVKGVNESKRDAFFVAHNNESGYWWQGENARLGSLATMAYLAQPHIASQEIQQQLSVFAQDALNWIVGLNPYDMCMLDGHGRNNPDYLPQYGFFNAKGGVCNGITGGFEDEEDIAFNPPAQKDDMLQNWRWGEQWIPHGAWYLLAIMSQAQHISQLATSKNIKEGHHHHHH | soluble
